Test results taken from PMC12077208, “Cryo-EM reveals a double oligomeric ring scaffold of the CHIKV nsP3 peptide in complex with the NTF2L domain of host G3BP1” (mBio, 2025).

B1: C-terminal region of CHIKV-43, 491LTFGDFLPGEVDDLTDSD508 (motif 2 and α2) (peptide)
peptide: LTFGDFLPGEVDDLTDSD
notes: also called C-terminus (motif 2 and α2) of CHIKV-43
B2: N-terminal region of CHIKV-43, 473ITFGDFNDGEIESLSSEL490 (motif 1 and α1) (peptide)
peptide: ITFGDFNDGEIESLSSEL
notes: also called N-terminus (motif 1 and α1) of CHIKV-43

Target: T1, nuclear translocation factor 2-like (NTF2L) domain of human G3BP1 (human, UniProt Q13283-1 1-138)
T1 construct: three extra residues Gly-Ala-Ser left at the N-terminus after TEV cleavage of the 6xHis tag; complete chains (1-138) are C, G, N and R; also called G3BP1-NTF2L domain; source: E. coli BL21 (DE3), purified (Ni-NTA, TEV cleavage, second Ni-NTA, SEC); not shown: His6, N-terminal, cleaved
Experiment: ITC; peptide injected into NTF2L in the cell, 20°C, 20 mM HEPES, 150 mM NaCl, pH 7.5
Conditions: both partners purified

T1 sequence (Q13283 other isoform, or with tags, fused parts or gaps): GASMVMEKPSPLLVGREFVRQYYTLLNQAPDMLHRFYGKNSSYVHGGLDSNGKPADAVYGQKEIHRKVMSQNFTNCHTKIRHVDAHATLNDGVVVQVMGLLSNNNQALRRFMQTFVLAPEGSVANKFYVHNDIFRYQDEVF

Binder	Kd	fold reduction of binding affinity against CHIKV-43 with NTF2L	stoichiometry N
B1	2200 ± 500 nM	–	–
ITFGDFNDGEIESLSSELLTFGDFLP [CHIKV-26 peptide (residues Ile473 to Pro498 of CHIKV nsP3, without the α2 region)]	–	~100 fold	1 CHIKV-26 per NTF2L (1:1)
B2	3400 ± 700 nM	–	–
